In patent US20090187998A1:

Molecular target: wild-type serum response factor (SRF) in mouse heart (mouse) (UniProt Q9JM73)
Experiment: cell-based or functional assay

Sequence of UniProt Q9JM73 (Q9JM73 whole entry): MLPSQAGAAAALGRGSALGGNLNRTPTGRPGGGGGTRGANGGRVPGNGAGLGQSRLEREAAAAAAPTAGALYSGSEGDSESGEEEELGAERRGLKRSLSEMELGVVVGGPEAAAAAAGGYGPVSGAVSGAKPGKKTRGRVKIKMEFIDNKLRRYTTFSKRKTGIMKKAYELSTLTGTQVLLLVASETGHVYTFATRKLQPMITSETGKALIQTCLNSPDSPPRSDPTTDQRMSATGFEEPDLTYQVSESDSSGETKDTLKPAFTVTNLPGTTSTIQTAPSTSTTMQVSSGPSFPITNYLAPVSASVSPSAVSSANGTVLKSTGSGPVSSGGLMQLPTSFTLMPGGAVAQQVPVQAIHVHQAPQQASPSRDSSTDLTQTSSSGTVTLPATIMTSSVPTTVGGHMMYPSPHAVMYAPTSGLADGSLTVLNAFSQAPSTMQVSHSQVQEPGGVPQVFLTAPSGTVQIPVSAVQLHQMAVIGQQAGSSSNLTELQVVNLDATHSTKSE

EMSA: binding of SRF in heart protein lysate to the biotin-labeled wild-type SRE probe (Mild-R SRF Tg vs Non-Tg): 47 % reduced
Substance: dominant negative mutant form of human SRF (Thr->Ser at position 159 and Lys->Glu at position 163 of SRF) (from UniProt P11831 1-508)
